{"source": "patent US12522842B2", "about": "“Glutamine synthetase mutant having glufosinate resistance and application thereof and cultivation method therefor” (GEVOTO LLC, priority 2019, dated 2026)", "molecules": {"B1": {"name": "OsH: rice GS mutant, S59H versus SEQ ID NO. 1 (SEQ ID NO. 13) (protein)", "chain": "MASLTDLVNLNLSDTTEKIIAEYIWIGGSGMDLRSKARTLSGPVTDPSKLPKWNYDGSHTGQAPGEDSEVILYPQAIFKDPFRKGNNILVMCDCYTPAGEPIPTNKRHNAAKIFSSPEVASEEPWYGIEQEYTLLQKDINWPLGWPVGGFPGPQGPYYCGIGADKSFGRDIVDSHYKACLYAGINISGINGEVMPGQWEFQVGPSVGISAGDQVWVARYILERITEIAGVVVSFDPKPIPGDWNGAGAHTNYSTKSMRNDGGYEIIKSAIEKLKLRHKEHISAYGEGNERRLTGRHETADINTFSWGVANRGASVRVGRETEQNGKGYFEDRRPASNMDPYIVTSMIAETTIIWKP", "modifications": "OsH"}, "B2": {"name": "OsY: rice GS mutant, S59Y versus SEQ ID NO. 1 (SEQ ID NO. 19) (protein)", "chain": "B1 chain with H59Y", "modifications": "OsY"}, "B3": {"name": "OsGS_WT: wild-type rice glutamine synthetase, SEQ ID NO. 1, negative control (protein, listed as Oryza sativa)", "chain": "B1 chain with H59S"}, "B4": {"name": "TaGR (protein)", "chain": "MALLTDLLNLDLTDSTEKIIAEYIWIGGSGMDLRSKARTLPGPVTDPSKLPKWNYDGSGTGQAPGEDSEVILYPQAIFKDPFRKGNNILVMCDCYTPAGVPIPTNKRYNAAKIFSNPDVAKEEPWYGIEQEYTLLQKDINWPLGWPVGGFPGPQGPYYCSIGADKSFGRDIVDSHYKACLFAGVNISGINGEVMPGQWEFQVGPTVGISAGDQVWVARYLLERITEIAGVVVTFDPKPIPGDWNGAGAHTNYSTESMRKDGGFKVIVDAVEKLKLKHKEHIAAYGEGNERRLTGKRETADINTFSWGVANRGASVRVGRETEQNGKGYFEDRRPASNMDPYVVTSMIAETTILWKP", "modifications": "TaGR"}, "B5": {"name": "GmGS_WT: wild-type soybean glutamine synthetase, SEQ ID NO. 3, control (protein)", "chain": "MSLLSDLINLNLSDTTEKVIAEYIWIGGSGMDLRSKARTLPGPVSDPSKLPKWNYDGSSTGQAPGEDSEVIIYPQAIFRDPFRRGNNILVICDTYTPAGEPIPTNKRHDAAKVFSHPDVVAEETWYGIEQEYTLLQKDIQWPLGWPVGGFPGPQGPYYCGVGADKAFGRDIVDAHYKACLYAGINISGINGEVMPGQWEFQVGPSVGISAGDEVWAARYILERITEIAGVVVSFDPKPIQGDWNGAGAHTNYSTKSMRNDGGYEVIKTAIEKLGKRHKEHIAAYGEGNERRLTGRHETADINTFLWGVANRGASVRVGRDTEKAGKGYFEDRRPASNMDPYVVTSMIADTTILWKP", "modifications": "Glycine max", "notes": "3, control"}, "B6": {"name": "GmGR (protein)", "chain": "B5 chain with S59G, H296R", "modifications": "GmGR"}, "B7": {"name": "OsF (protein)", "chain": "B1 chain with H59F", "modifications": "OsF"}, "B8": {"name": "OsI (protein)", "chain": "B1 chain with H59I", "modifications": "OsI"}, "B9": {"name": "OsC (protein)", "chain": "B1 chain with H59C", "modifications": "OsC"}, "B10": {"name": "OsE (protein)", "chain": "B1 chain with H59E", "modifications": "OsE"}, "B11": {"name": "OsD (protein)", "chain": "B1 chain with H59D", "modifications": "OsD"}, "B12": {"name": "OsG (protein)", "chain": "B1 chain with H59G", "modifications": "OsG"}}, "note": "Where a chain is given by its changes, count along the chain named. Names may count otherwise."}
{"molecular_target": "rice GS (glutamine synthetase)", "test": "Enzymatic activity of purified rice GS: kinetic parameters and glufosinate IC50", "format": "biochemical, rice (Oryza sativa)", "conditions": "inhibition of rice GS by glufosinate", "description": "(§1) OsC, OsF, OsG, OsH, OsP, and OsY provided in Example 1, OR provided in Example 3, and rice GS mutant OsGR and wheat GS mutant TaGR provided in Example 2 were detected for their enzymatic kinetic parameter, and enzymatic kinetic parameter in the presence of glufosinate, using wild-type rice GS OsGS_WT and wild-type wheat GS TaGS_WT as controls according to the following method.\n(§2) The nucleic acid sequences encoding the above mutants were each cloned into a prokaryotic expression vector pET32a, and the clone was verified by sequencing.\n(§3) The mutant enzyme protein was purified with 6His by a standard method, and its concentration was determined with a protein concentration assay kit with Bradford method. The protein was stored in a protein storage solution.\n(§4) ELIASA (Detielab, HBS-1096A), glufosinate, substrate sodium L-glutamate (CAS: 6106-04-3).\n(§5) (1) The composition of a reaction solution for determination of enzymatic activity of glutamine synthetase were as follows: 100 mM Tris-HCl (pH 7.5), 10 mM ATP, 20 mM sodium L-glutamate, 30 mM hydroxylamine, 20 mM MgCl2. 100 μl of the reaction solution after mixed thoroughly was preheated at 35° C. for 5 min, and 10 μl of mutant protein solution (protein concentration of 200 μg/ml) was added to start the reaction. After reaction at 35° C. for 30 min, 110 μl of color developing solution (55 g/L FeCl3·6H2O, 20 g/L trichloroacetic acid, 2.1% concentrated hydrochloric acid) was added to terminate the reaction. The absorbance at 540 nm was measured."}
{"molecule": "B1", "glufosinate resistance parameter IC50": "much higher than those of the wild-type controls"}
{"molecule": "B2", "glufosinate resistance parameter IC50": "much higher than those of the wild-type controls"}
{"molecular_target": "rice GS (glutamine synthetase)", "test": "Enzymatic activity of purified rice GS: kinetic parameters and glufosinate IC50", "format": "biochemical, rice (Oryza sativa)", "conditions": "inhibition of rice GS by glufosinate; read-out: glufosinate resistance parameter IC50", "description": "as §1, §2, §3, §4, §5", "units": {"IC50": "µM"}}
{"molecule": "B3", "IC50": 700}
{"system": "glutamine synthetase-deficient Escherichia coli", "test": "Growth of glutamine synthetase-deficient E. coli transformed with GS mutants in M9 medium containing glufosinate", "format": "cell-based", "conditions": "media containing 2 mM, 5 mM, 10 mM, and 20 mM glufosinate", "description": "(§6) According to the sequences of the nucleic acid molecules provided in Example 4, the nucleic acid sequences encoding rice GS mutants OsA, OsC, OsD, OsE, OsF, OsG, OsH, OsI, OsK, OsP, OST, OsV, and OsY were synthesized using chemical synthesis method. Restriction digestion sites (Pac1 and Sbf1) were introduced at both ends thereof, and after restriction digestion, they were linked under the action of ligase to an expression vector (such as pADV7 vector, whose structure is shown in FIG. 4) that was subjected to the same restriction digestion treatment. Then, glutamine synthetase-deficient Escherichia coli was transformed with the resultant. After verification, positive clones were picked up and inoculated in M9 medium containing different concentrations of glufosinate to grow, and the growth status of defective Escherichia coli was observed.\n(§7) With wild-type rice GS (its amino acid sequence shown in SEQ ID NO. 1 and its encoding gene shown in SEQ ID NO. 4) as a negative control, the glufosinate resistance for the GS mutant OsA (S59A, wherein the amino acid S at site 59 of the rice GS is mutated into A), OsC (S59C), OsD (S59D), OsE (S59E), OsF (S59F), OsG (S59G), OsH (S59H), OsI (S591), OsK (S59K), OsP (S59P), OsT (S59T), OsV (S59V), OsY (S59Y) was detected.\n(§8) With reference to the detection method of Experimental Example 1, glufosinate resistance of the rice GS mutant OsGR (S59G and H296R, the amino acid S at site 59 of rice GS is mutated into G and the amino acid H at site 296 is mutated into R), the wheat GS mutant TaGR (S59G and H296R, the amino acid S at site 59 of wheat GS is mutated into G and the amino acid H at site 296 is mutated into R), the soybean GS mutant GmGR (S59G and H296R, the amino acid S at site 59 of soybean GS is mutated into G and the amino acid H at site 296 is mutated into R) provided in Example 2 was verified.\n(§9) With reference to Experimental example 1, the glufosinate resistance of rice GS mutants OA, OD, OE, OG, OI, OK, OM, OP, OQ, OR, OS, OT, and OV provided in Example 3 was detected according to the following method.\n(§10) With wild-type rice GS as a negative control, the glufosinate resistance of GS mutants OA (H296A, amino acid H at site 296 of rice GS is mutated into A), OD (H296D), OE (H296E), OG (H296G), OI (H2961), OK (H296K), OM (H296M), OP (H296P), OQ (H296Q), OR (H296R), OS (H296S), OT (H296T), OV (H296V) was detected."}
{"molecule": "B4", "growth of transformed E. coli (glufosinate resistance)": "significantly grew"}
{"molecule": "B5", "growth of transformed E. coli (glufosinate resistance)": "could hardly grow"}
{"molecule": "B6", "growth of transformed E. coli (glufosinate resistance)": "significantly grew"}
{"system": "glutamine synthetase-deficient Escherichia coli", "test": "Growth of glutamine synthetase-deficient E. coli transformed with GS mutants in M9 medium containing glufosinate", "format": "cell-based", "conditions": "media containing 10 mM, 20 mM and 300 mM glufosinate", "description": "as §6, §7, §8, §9, §10"}
{"molecule": "B3", "growth of transformed E. coli (glufosinate resistance)": "could hardly grow"}
{"system": "glutamine synthetase-deficient Escherichia coli", "test": "Growth of glutamine synthetase-deficient E. coli transformed with GS mutants in M9 medium containing glufosinate", "format": "cell-based", "conditions": "medium containing 0 mM glufosinate", "description": "as §6, §7, §8, §9, §10"}
{"molecule": "B3", "growth of transformed GS-deficient E. coli (normal GS enzymatic activity)": "could normally grow"}
{"molecule": "B1", "growth of transformed GS-deficient E. coli (normal GS enzymatic activity)": "could normally grow"}
{"molecule": "B7", "growth of transformed GS-deficient E. coli (normal GS enzymatic activity)": "could normally grow"}
{"molecule": "B8", "growth of transformed GS-deficient E. coli (normal GS enzymatic activity)": "could normally grow"}
{"molecule": "B2", "growth of transformed GS-deficient E. coli (normal GS enzymatic activity)": "could normally grow"}
{"molecule": "B9", "growth of transformed GS-deficient E. coli (normal GS enzymatic activity)": "could normally grow"}
{"molecule": "B10", "growth of transformed GS-deficient E. coli (normal GS enzymatic activity)": "could normally grow"}
{"molecule": "B11", "growth of transformed GS-deficient E. coli (normal GS enzymatic activity)": "could normally grow"}
{"molecule": "B12", "growth of transformed GS-deficient E. coli (normal GS enzymatic activity)": "could normally grow"}
{"molecule": "B4", "growth of transformed GS-deficient E. coli (normal GS enzymatic activity)": "could normally grow"}
{"molecule": "B5", "growth of transformed GS-deficient E. coli (normal GS enzymatic activity)": "could normally grow"}
{"molecule": "B6", "growth of transformed GS-deficient E. coli (normal GS enzymatic activity)": "could normally grow"}
{"system": "glutamine synthetase-deficient Escherichia coli", "test": "Growth of glutamine synthetase-deficient E. coli transformed with GS mutants in M9 medium containing glufosinate", "format": "cell-based", "conditions": "medium containing 10 mM glufosinate", "description": "as §6, §7, §8, §9, §10"}
{"molecule": "B3", "growth of transformed E. coli (glufosinate resistance)": "could hardly grow"}
{"molecule": "B1", "growth of transformed E. coli (glufosinate resistance)": "significantly superior to that of the negative control"}
{"molecule": "B7", "growth of transformed E. coli (glufosinate resistance)": "significantly superior to that of the negative control"}
{"molecule": "B8", "growth of transformed E. coli (glufosinate resistance)": "significantly superior to that of the negative control"}
{"molecule": "B2", "growth of transformed E. coli (glufosinate resistance)": "significantly superior to that of the negative control"}
{"molecule": "B9", "growth of transformed E. coli (glufosinate resistance)": "significantly superior to that of the negative control"}
{"molecule": "B10", "growth of transformed E. coli (glufosinate resistance)": "significantly superior to that of the negative control"}
{"molecule": "B11", "growth of transformed E. coli (glufosinate resistance)": "significantly superior to that of the negative control"}
{"molecule": "B12", "growth of transformed E. coli (glufosinate resistance)": "significantly superior to that of the negative control"}
{"system": "glutamine synthetase-deficient Escherichia coli", "test": "Growth of glutamine synthetase-deficient E. coli transformed with GS mutants in M9 medium containing glufosinate", "format": "cell-based", "conditions": "medium with 50 mM/100 mM glufosinate", "description": "as §6, §7, §8, §9, §10"}
{"molecule": "B1", "growth of transformed E. coli (glufosinate resistance)": "significantly grew"}
{"molecule": "B7", "growth of transformed E. coli (glufosinate resistance)": "significantly grew"}
{"molecule": "B8", "growth of transformed E. coli (glufosinate resistance)": "significantly grew"}
{"molecule": "B2", "growth of transformed E. coli (glufosinate resistance)": "significantly grew"}
{"molecule": "B9", "growth of transformed E. coli (glufosinate resistance)": "significantly grew"}
{"molecule": "B11", "growth of transformed E. coli (glufosinate resistance)": "significantly grew"}
{"molecule": "B12", "growth of transformed E. coli (glufosinate resistance)": "significantly grew"}
